Results as given in patent publication US5767073, “D4 gene and methods of use thereof” (Beth Israel Hospital Association, dated 1998).

Experiments:
[1] = molecular target: T1, CDC42Hs (human, UniProt P60953)
[2] = molecular target: T1, CDC42Hs; test: inferred from the dose response of GDI activity; reference rhoGDI
[3] = molecular target: rac 1 (Homo sapiens (Human)) (UniProt P63000); test: as above
[4] = molecular target: T1, CDC42Hs; test: cell-based or functional assay
[5] = molecular target: CDC42Hs (human) (UniProt P60953)
[6] = molecular target: CDC42Hs (human) (UniProt P60953); remark: listed apart in the source
[7] = molecular target: CDC42Hs (human) (UniProt P60953); test: inferred from the dose response of GDI activity; reference rhoGDI

Q: Which results are given for human D4 protein?
A: GDI activity (times more concentration than rhoGDI) [1]: > 10; times lower binding than rhoGDI [2]: 30 to 40 times; times lower binding than rhoGDI [3]: 30 to 40 times

B1: GST-LD4 (glutathione-S-transferase fusion protein of LD4) (other)
chain: MTEKAPEPHVEEDDDDELDSKLNYKPPPQKSLKELQEMDKDDESLIKYKKTLLGDGPVVTDPKAPNVVVTRLTLVCESAPGPITMDLTGDLEALKKETIVLKEGSEYRVKIHFKVNRDIVSGLKYVQHTYRTGVKVDKATFMVGSYGPRPEEYEFLTPVEEAPKGMLAQDTYHNKSFFTDDDKQDHLSWEWNLSIKKEWTE
Q: How did the “apparent EC50, GDP dissociation inhibition assay” value [4] turn out when B1 was run?
A: The value was 7 to 8 µM.

B2: GST-mD4 (glutathione-S-transferase fusion protein of murine D4) (protein)
chain: MTEKDAQPQLEEADDDLDSKLNYKPPPQKSLKELQEMDKDDESLTKYKKTLLGDVPVVADPTVPNVTVTRLSLVCDSAPGPITMDLTGDLEALKKDTFVLKEGIEYRVKINFKVNKDIVSGLKYVQHTYRTGMRVDKATFMVGSYGPRPEEYEFLTPVEEAPKGMLARGTYHNKSFFTDDDKQDHLTWEWNLAIKKDWTEZ
Q: With B2 as the molecule, how does the GDI activity (times more concentration than rhoGDI) [5] read?
A: Its GDI activity (times more concentration than rhoGDI) is greater than 10.

Q: And the apparent EC50, GDP dissociation inhibition assay [6]?
A: The apparent EC50, GDP dissociation inhibition assay was 7 to 8 µM.

Q: What about the times lower binding than rhoGDI [7] of the same molecule?
A: Its times lower binding than rhoGDI is 30 to 40 times.

B3: GST-GN LC (chimera of the entire rho GDI sequence except that the carboxyl terminal 33 amino acids were from LD4) (other)
chain: MAEQEPTAEQLAQIAAENEEDEHSVNYKPPAQKSIQEIQELDKDDESLRKYKEALLGRVAVSADPNVPNVVVTGLTLVCSSAPGPLELDLTGDLESFKKQSFVLKEGVEYRIKISFRVNREIVSGMKYIQHTYRKGVKIDKTDYMVGSYGPRAEEYEFLTPVEEAPKGMLAQDTYHNKSFFTDDDKQDHLSWEWNLSIKKEWTE
Q: B3 was tested. Which “GDP dissociation inhibition assay” value [4] did it give?
A: Its value is ≥ 20 fold less effective than rho GDI.
